# Like-named read-outs stand apart in the source and are kept apart here.
# T1: recombinant laminin α3_(2928-3150) protein (human, UniProt Q16787 2928-3150)
# T1 sequence (looked up): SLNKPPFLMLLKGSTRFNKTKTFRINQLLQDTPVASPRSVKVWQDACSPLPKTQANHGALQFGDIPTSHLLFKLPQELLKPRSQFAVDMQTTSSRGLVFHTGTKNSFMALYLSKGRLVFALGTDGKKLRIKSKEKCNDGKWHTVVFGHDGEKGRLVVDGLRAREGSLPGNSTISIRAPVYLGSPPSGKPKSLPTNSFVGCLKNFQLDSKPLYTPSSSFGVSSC
# T2: recombinant human syndecan-1 (human, UniProt P18827 23-254)
# T2 sequence (looked up): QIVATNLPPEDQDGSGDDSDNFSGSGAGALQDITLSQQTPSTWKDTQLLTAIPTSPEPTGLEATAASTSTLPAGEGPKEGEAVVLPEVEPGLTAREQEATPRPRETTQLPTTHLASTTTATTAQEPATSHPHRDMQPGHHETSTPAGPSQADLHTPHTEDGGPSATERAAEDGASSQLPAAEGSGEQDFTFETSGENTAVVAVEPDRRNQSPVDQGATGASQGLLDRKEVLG
# T3: recombinant human syndecan-4 (human, UniProt P31431 19-145)
# T3 sequence (looked up): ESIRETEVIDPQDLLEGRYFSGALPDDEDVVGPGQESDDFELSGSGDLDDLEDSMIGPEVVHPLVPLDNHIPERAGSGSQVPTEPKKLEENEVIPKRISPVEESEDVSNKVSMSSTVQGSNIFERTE
# B1: placental growth factor (PlGF)-2 (ligand, human, UniProt P49763-3 19-170, looked up)
# chain: LPAVPPQQWALSAGNGSSEVEVVPFQEVWGRSYCRALERLVDVVSEYPSEVEHMFSPSCVSLLRCTGCCGDENLHCVPVETANVTMQLLKIRSGDRPSYVELTFSQHVRCECRPLREKMKPERRRPKGRGKRRREKQRPTDCHLCGDAVPRR
# B2: platelet-derived growth factor (PDGF)-BB (ligand, human, UniProt P01127 82-190, looked up)
# chain: SLGSLTIAEPAMIAECKTRTEVFEISRRLIDRTNANFLVWPPCVEVQRCSGCCNNRNVQCRPTQVQLRPVQVRKIEIVRKKPIFKKATVTLEDHLACKCETVAAARPVT
# Columns and labels:
# laminin-521 = laminin-521 (human, UniProt O15230 36-3695; P55268 33-1798; P11047 34-1609); assay: SPR
# [1] = molecular target: recombinant laminin α3_(2928-3150) protein (human) (UniProt Q16787); assay: SPR
# laminin-111 [2] = molecular target: T4, laminin-111 (human, UniProt P25391 18-3075; P07942 22-1786; P11047 34-1609); assay: ELISA
# laminin-211 [3] = molecular target: T5, laminin-211 (human, UniProt P24043 23-3122; P07942 22-1786; P11047 34-1609); assay: ELISA
# [4] = molecular target: T1, recombinant laminin α3_(2928-3150) …; assay: ELISA
# laminin-411 = laminin-411 (human, UniProt Q16363 25-1823; P07942 22-1786; P11047 34-1609); assay: ELISA
# laminin-421 = laminin-421 (human, UniProt Q16363 25-1823; P55268 33-1798; P11047 34-1609); assay: ELISA
# laminin-111 [5] = molecular target: T4, laminin-111; assay: ELISA; remark: listed apart in the source
# laminin-211 [6] = molecular target: T5, laminin-211; assay: ELISA; remark: listed apart in the source
# [7] = molecular target: T1, recombinant laminin α3_(2928-3150) …; assay: SPR
# [8] = molecular target: fibroblast growth factor (FGF)-2 (human, UniProt P09038 143-288); assay: ELISA
# [9] = molecular target: B1; assay: ELISA
# [10] = molecular target: B2; assay: ELISA
# [11] = molecular target: T2, recombinant human syndecan-1; assay: ELISA
# [12] = molecular target: T3, recombinant human syndecan-4; assay: ELISA
# [13] = molecular target: recombinant human syndecan-2 (human, UniProt P34741 19-144); assay: ELISA
# Sequence of recombinant human syndecan-2 (P34741 19-144): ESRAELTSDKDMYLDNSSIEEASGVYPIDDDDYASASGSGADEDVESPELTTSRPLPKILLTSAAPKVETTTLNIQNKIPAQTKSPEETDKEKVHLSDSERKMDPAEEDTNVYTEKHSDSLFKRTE
# Sequence of fibroblast growth factor (FGF)-2 (P09038 143-288): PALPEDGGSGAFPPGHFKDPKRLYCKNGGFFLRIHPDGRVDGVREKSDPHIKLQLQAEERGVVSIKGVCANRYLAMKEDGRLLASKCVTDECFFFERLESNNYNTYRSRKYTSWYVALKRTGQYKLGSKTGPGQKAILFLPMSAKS
Molecule,Kd (laminin-521),binding result [8],binding result [9],binding result [10],binding result [11],binding result [12],binding result [13],also measured
vascular endothelial growth factor (VEGF)-A165 (ligand),5.8 nM,–,–,–,–,–,–,Kd [1]: 1.2 nM
B1,12.9 nM,–,–,–,–,–,–,binding result (laminin-111 [2]): binds; binding result (laminin-211 [3]): binds; binding result [4]: binds; binding result (laminin-411): binds; binding result (laminin-421): binds
B2,24.2 nM,–,–,–,–,–,–,binding result (laminin-111 [5]): binds; binding result (laminin-411): binds; binding result (laminin-211 [6]): binds; binding result (laminin-421): binds; Kd [7]: 10.2 nM
"RLVFALGTDGKKLRIKSKEKCNDGK (peptide, UniProt Q16787 3043-3067, looked up) [laminin-derived peptide α3_(3043-3067)]",–,binds,binds,binds,binds,binds,binds,–
"RQRSRPGRWHKVSVRWEKNR (peptide, UniProt O15230 3417-3436, looked up) [laminin-derived peptide α5_(3417-3436)]",–,binds,binds,binds,binds,binds,binds,–
"PPFLMLLKGSTRFNKTKTFR (peptide, UniProt Q16787 2932-2951, looked up) [laminin-derived peptide α3_(2932-2951)]",–,binds,–,–,–,–,–,–
"TPGLGPRGLQATARKASRRSRQPARHPACML (peptide, UniProt O15230 3300-3330, looked up) [laminin-derived peptide α5_(3300-3330)]",–,–,binds,–,binds,binds,binds,–
"TLPDVGLELEVR (peptide, UniProt O15230 3539-3550, looked up) [laminin-derived peptide α5_(3539-3550)]",–,binds,binds,binds,–,–,–,–
